Measured values published in patent publication US20250339382A1, “CORRALLING AMPHIPATHIC PEPTIDE COLLOIDS” (KANSAS STATE UNIVERSITY RESEARCH FOUNDATION, priority 2022, published 2025).
No end group written: not given here. *: point of attachment. methylmercury = [CH3][Hg]*

Columns and labels:
[1] = Zeta potential analysis (Litesizer 500); assay type: physicochemical
Procedure: (§1) Encapsulation studies-Winterized Soybean oil (Archer Daniel Midlands, Chicago, IL) 50 μL was added to 2 mg of dry peptide and vortexed for 2 min. Deionized distilled-reverse osmosis (DDI-RO) water was added to a final volume of 1 mL. This mixture was sonicated (bath sonicator) for 15 min at 37° C. The generated CAPC are maintained at RT for at least 1 h prior to confocal microscopy. For the solvent/oil encapsulation study reagent grade-Benzene (Sigma-Aldrich, St. Louis, MO), Cyclohexane (Acros Organics, Geel, Belgium), n-Decane (grade 99+%, Sigma-Aldrich, St. Louis), Migloyl® 812N; capric triglyceride (Pharma Grade, IOI Oleo GmbH, Witten, Germany), and Mineral oil paraffin (USP, Thermo-Fisher Scientific, Waltham, MA) and Winterized Soy oil (Archer Daniel Midlands, Chicago, IL) were used. […] prepared using 50 μL of the solvent/oil along with 480 μL of DDI-RO water were sonicated for 15 min. CAPC, 2 mg, was subsequently added and sonicated for 10 min. These samples were measured 24 h thereafter for their size, Zeta potential and their circular dichroism (CD) spectra recorded. Particle size/Zeta potential-The samples were analyzed using a LitesizerTM 500 Particle Size Analyzer (Anton Paar GmbH, Graz, Austria) using an Omega Cuvette at 25° C. The size distribution of the particles was analyzed with the proprietary KalliopeTM v.2.16 software (Anton Paar GmbH, Graz, Austria) using the intensity-weighing model. For the Zeta potential analysis, the suspension used above was diluted to 5-fold in DDI-RO prior to analysis.

[2] = Particle size and polydispersity by dynamic light scattering (Litesizer 500); assay type: physicochemical; conditions: for Hydrodynamic Diameter / Polydispersity: colloids produced by the amphipathic sequence in soy oil
Procedure: as §1

[3] = colloids produced by the amphipathic sequence in soy oil

Substance	Zeta Potential [1, 3]	Hydrodynamic Diameter [2]	Polydispersity [2]	Zeta Potential ([1]; peptide complexed with soy oil droplets)	average (mean) diameter ([2]; peptide complexed with soy oil droplets, DLS intensity peak)
Ac-FLIVIGSII-KKKKK-CONH2 (Ac-FLIVIGSIIKKKKK-NH2) [Ac-FLIVIGSII-KKKKKCONH2]	21 mV	300 nm	23%		
5(6)-Ac-FLIVI-KKKKK- C-CF (Ac-FLIVIKKKKKC; also: 5(6)-carboxyfluorescein label (C-CF), attachment not given here)	25 ± 2.7 mV	766 ± 225.0 nm	21 ± 4.8%		
Ac-FLLLL-KKKKK-CONH2 (Ac-FLLLLKKKKK-NH2)	−0.6 mV	666 nm	200%		
Ac-FLIVI-KKKKK-CO-NH2 (Ac-FLIVIKKKKK-NH2) [Ac-FLIVI-KKKKK-CONH2]	38 mV	560 nm	20%	44.8 mV	465 nm
Ac-IVFLI-KKKKK-CONH2 (Ac-IVFLIKKKKK-NH2)	25 mV	594 nm	25%		
Ac-FAAAA-KKKKK-CONH2 (Ac-FAAAAKKKKK-NH2) [oligo-alanine peptide]	10.2 mV	681 nm	500%		
Ac-FLIVI-KKKKK-C-Me-Hg (Ac-FLIVIKKKKKC(methylmercury))	33 ± 4.0 mV	578 ± 96.0 nm	25 ± 5.8%		
